T1: CinB (CinB^wPip, wPa_0295), co-expressed with His6-CinA from the full operon in E. coli (Wolbachia pipientis, wPip strain)
T1 construct: also called putative DUF1703 nuclease
T1 chain: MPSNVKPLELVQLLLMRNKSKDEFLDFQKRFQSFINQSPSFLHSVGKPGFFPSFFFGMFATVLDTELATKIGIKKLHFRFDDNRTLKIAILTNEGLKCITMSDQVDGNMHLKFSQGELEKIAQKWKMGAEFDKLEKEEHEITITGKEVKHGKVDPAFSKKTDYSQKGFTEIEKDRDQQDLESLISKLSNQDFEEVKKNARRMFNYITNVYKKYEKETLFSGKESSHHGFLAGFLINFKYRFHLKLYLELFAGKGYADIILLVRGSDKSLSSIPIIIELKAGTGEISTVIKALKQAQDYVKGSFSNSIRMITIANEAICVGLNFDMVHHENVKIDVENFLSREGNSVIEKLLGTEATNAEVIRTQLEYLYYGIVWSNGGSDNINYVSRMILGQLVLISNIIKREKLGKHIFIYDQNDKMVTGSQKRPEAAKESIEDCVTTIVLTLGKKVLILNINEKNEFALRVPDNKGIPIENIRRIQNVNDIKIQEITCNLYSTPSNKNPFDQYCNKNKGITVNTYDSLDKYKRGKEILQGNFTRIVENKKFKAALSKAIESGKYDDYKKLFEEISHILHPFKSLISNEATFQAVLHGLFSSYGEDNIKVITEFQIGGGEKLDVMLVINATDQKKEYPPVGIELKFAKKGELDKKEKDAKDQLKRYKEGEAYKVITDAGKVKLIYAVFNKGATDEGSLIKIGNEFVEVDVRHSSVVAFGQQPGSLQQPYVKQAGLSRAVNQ

T2: CidB (CidB^wPip, wPa_0283), co-expressed with His6-CidA from the full operon in E. coli (Wolbachia pipientis, wPip strain)
T2 construct: also called toxin
T2 chain: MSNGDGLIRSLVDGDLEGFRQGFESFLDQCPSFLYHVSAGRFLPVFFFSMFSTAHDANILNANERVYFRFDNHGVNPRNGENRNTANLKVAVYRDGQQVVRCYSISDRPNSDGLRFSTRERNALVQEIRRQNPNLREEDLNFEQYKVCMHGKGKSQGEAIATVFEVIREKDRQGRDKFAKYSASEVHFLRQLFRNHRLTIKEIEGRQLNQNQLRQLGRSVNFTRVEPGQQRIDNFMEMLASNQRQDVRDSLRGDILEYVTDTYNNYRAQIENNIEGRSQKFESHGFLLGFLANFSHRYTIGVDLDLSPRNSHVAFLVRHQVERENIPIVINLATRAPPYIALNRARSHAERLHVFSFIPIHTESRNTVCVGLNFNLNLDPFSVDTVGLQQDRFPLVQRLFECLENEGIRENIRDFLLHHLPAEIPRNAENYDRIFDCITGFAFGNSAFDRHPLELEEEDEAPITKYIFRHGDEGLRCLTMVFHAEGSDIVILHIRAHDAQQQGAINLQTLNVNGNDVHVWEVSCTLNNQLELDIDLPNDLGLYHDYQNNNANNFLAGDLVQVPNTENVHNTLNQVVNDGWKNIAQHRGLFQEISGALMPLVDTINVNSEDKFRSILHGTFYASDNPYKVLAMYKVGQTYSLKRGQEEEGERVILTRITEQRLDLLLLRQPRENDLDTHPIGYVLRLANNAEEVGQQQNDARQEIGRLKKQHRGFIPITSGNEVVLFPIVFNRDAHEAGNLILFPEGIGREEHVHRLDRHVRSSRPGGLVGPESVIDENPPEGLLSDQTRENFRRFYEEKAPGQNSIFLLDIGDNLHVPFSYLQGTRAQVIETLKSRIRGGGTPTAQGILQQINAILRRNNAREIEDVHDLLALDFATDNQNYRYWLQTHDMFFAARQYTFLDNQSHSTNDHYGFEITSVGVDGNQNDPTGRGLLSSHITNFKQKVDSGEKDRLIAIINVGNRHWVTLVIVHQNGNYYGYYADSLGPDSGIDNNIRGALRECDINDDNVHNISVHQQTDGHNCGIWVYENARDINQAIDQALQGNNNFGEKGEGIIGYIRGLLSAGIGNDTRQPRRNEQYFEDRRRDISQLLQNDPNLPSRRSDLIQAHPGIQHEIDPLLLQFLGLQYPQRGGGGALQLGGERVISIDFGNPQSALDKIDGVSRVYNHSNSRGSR

B1: His6-CinA (CinA^wPip, wPa_0294, His6-tagged) (other)
chain: MESGLDHNYNKILDILKGAIKGDDNQVKARKHLRVERWLRAYIQLIEDFDEEKLIFFSDIFSDNSCWDGIKLKNKAVGERLTEEKNKNGKENPLDLADRYYLACKYCLEDKIPGLFEQVFMRFKRSAFEEDGSDDDLRRELLENIEETSPIEAFWSFLIDKQIGKLNEYKSVEGLQKSIQINSNKNWEEGIEFFYNKLHNDSSISSQDKDDLLIEAALSAVKGYKEVDTIEFCLSKMDDEQKKKLLDRDYKENTYYAVLNVLVGQYYFDSFMELSRLCSQIECERYTTFLSSLSDQVLKNPDLSEETKKCMMNVWERIIKLKTQDRGEQSISSIFVDYSVTYTIANLIVDPSRQGVSKEEILGKILKHVKEMSGEEMIKVKDSVLSKIQLFHGGKKLQLGEQVFSKLAQEASKESILREAGDTLPQSSLSTTDTPYNIKSLSHSK
B2: His6-CidA (CidA^wPip, wPa_0282, N-terminally His6-tagged) (other)
chain: MPTQKELRDTMSKKLQEAIKHPDPAVVAGRKSAIKRWVGVLQDNFMEHIKYFKGDKLKFLHNVFQDEGCWSGVRLDNAALGQRFTEEKIGGIDNPLRKYEMACSYCVVDKIHPLFQKRFESYRNKFPPGAFDGKTETEFGKYVRNSLLDSIKRKGPVFDFWIDRESGELKKYDAVEGFDSAVKFKWSEGVEYFYNHLKEEDKEKKLTEAILALSRVQSVEKDAPILDFCVNKIVDKDTLLQKLSQKDKGVYSLFAELIESCFFDTVHDLVQCWCYKEVSAGGDHSEKIFSQRDYELFLSSLSDTMLKNPELSVQARSLIMEFWECGSLYQYRKAAVNTSNYTVPTSGVFAELIVNWRREDIYKTDEEKEIEKKEILDMMSFAKDCFPEKFELFKKLIIRDLRLCGREGKRVNVDYGLFAEELFSELEKTILPPGPVGDGPCSNLRSRSKAHGSKKTTLPVDDSPQSELGTPSVSGVSSYKKKSVFTLSGNK
notes: also called His6-tagged CidA; antidote

What was measured:
[1] = molecular target: T1, CinB (CinB^wPip, wPa_0295), …; assay: summary of the pulldown experiments of Example 2
[2] = molecular target: T2, CidB (CidB^wPip, wPa_0283), …; assay: summary of the pulldown experiments of Example 2

Row | Binder | binding result [1] | binding result [2]
1 | B1 | binds | 
2 | B2 |  | binds

Source: patent US20240164355A1 (VANDERBILT UNIVERSITY, published 2024)
